Measurements published in patent US20130011401A1.

Molecular target: human monomeric APP-tagged SIRPα V domain protein (human) (UniProt P78324)
Assay: BiaCORE SPR; binder captured on Protein A, monovalent APP-tagged SIRPα V domain as analyte (Method 2.1)

Substance: CD47-ECD IgG1 Fc fusion protein (from UniProt Q08722 19-141)
- Kd: 3000 nM
